Where a chain is given by its changes, count along the chain named.
B1: TNF mutein B4 (ligand)
chain: VRSSSHTPSDKPVAHVVANPQAEGQLQWLNRRANALLANGVELRDNQLVVPSEGLYLIYSQVLFKGQGCPSTHVLLTHTISRISESHDGKVNLLSAIKSPCQRETPEGAEAKPWYEPIYLGGVFQLEKGDRLSAEINRPDYLDFAESGQVYFGIIAL
notes: Human TNF mutein, SESHDG at positions 84-89; not shown: C-terminal FLAG tag and His6 tag from vector pANT65
B2: TNF mutein B5 (ligand)
chain: B1 chain with R2H, H6R, S84T, E85G, S86T, H87Y, D88V, G89D
notes: Human TNF mutein, TGTYVD at positions 84-89; not shown: C-terminal FLAG tag and His6 tag from vector pANT65
B3: TNF mutein C8 (ligand)
chain: B1 chain with H6R, E85Q, S86T
notes: Human TNF mutein, SQTHDG at positions 84-89; not shown: C-terminal FLAG tag and His6 tag from vector pANT65
B4: TNF mutein G4 (ligand)
chain: B1 chain with H6R, E85S, S86T, H87Y, D88N, G89P
notes: Human TNF mutein, SSTYNP at positions 84-89; also called mutTNF G4; mutTNF; not shown: C-terminal FLAG tag and His6 tag from vector pANT65
B5: TNF mutein C4 (ligand)
chain: B1 chain with H6R, E85H, H87V, D88E
notes: Human TNF mutein, SHSVEG at positions 84-89; not shown: C-terminal FLAG tag and His6 tag from vector pANT65
B6: TNF mutein B6 (ligand)
chain: B1 chain with H6R, S84T, E85G, S86T, H87Y, D88S, G89Y
notes: Human TNF mutein, TGTYSY at positions 84-89; not shown: C-terminal FLAG tag and His6 tag from vector pANT65
B7: TNF mutein F3 (ligand)
chain: B1 chain with H6R, S84T, E85T, S86T, H87Y, D88R, G89L, I155V
notes: Human TNF mutein, TTTYRL at positions 84-89; not shown: C-terminal FLAG tag and His6 tag from vector pANT65
B8: TNF mutein F7 (ligand)
chain: B1 chain with R2H, H6R, S86T, H87V, D88V, A134V
notes: Human TNF mutein, SETVVG at positions 84-89; not shown: C-terminal FLAG tag and His6 tag from vector pANT65
B9: mouse TNF (mTNF), soluble protein expressed from pANT65 (ligand, UniProt P06804 80-235, looked up)
chain: LRSSSQNSSDKPVAHVVANHQVEEQLEWLSQRANALLANGMDLKDNQLVVPADGLYLVYSQVLFKGQGCPDYVLLTHTVSRFAISYQEKVNLLSAVKSPCPKDTPEGAELKPWYEPIYLGGVFQLEKGDQLSAEVNLPKYLDFAESGQVYFGVIAL
notes: not shown: C-terminal FLAG tag and His6 tag from vector pANT65

molecular target: T1, Fc tagged mouse TNFR1 (Sino Biological) (mouse, UniProt P25118 22-212, limits assumed); test: SPR, Biacore T200 single cycle kinetics, receptor-Fc captured on Protein A chip, TNF 1.67-15 nM
T1 construct: Bought reagent; also called mTNFR1; mTNFR1-Fc; not shown: Fc tag of the bought protein
T1 sequence (looked up): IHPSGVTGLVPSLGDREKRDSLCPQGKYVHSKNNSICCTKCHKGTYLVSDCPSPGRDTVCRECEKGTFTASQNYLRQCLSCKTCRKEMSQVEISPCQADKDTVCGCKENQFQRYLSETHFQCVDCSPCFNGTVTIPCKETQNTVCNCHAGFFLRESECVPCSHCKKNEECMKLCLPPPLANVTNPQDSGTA
Experimental: (§1) Single cycle kinetic analysis was performed using a Biacore T200 (serial no. 1909913) running Biacore T200 Evaluation Software V2.0.1 (Uppsala, Sweden). All experiments were run at 25° C. with HBS-P+ running buffer (pH 7.4) (GE Healthcare, Little Chalfont, UK).
(§2) Due to the limit in the number of available flow cells for analysis (three Fc per analysis, Fc2, Fc3 and Fc4, with Fc1 always being used as blank reference for non-specific subtraction), receptor binding was assessed in two separate overlapping runs using either: hTNFR1 (Fc2), hTNFR2 (Fc3) and mTNFR1 (Fc4), or; hTNFR1 (Fc2), […] and mTNFR2 (Fc4). Receptors were diluted in running buffer to a concentration of ˜4 μg/mL and at the start of each cycle loaded onto Fc2, Fc3 and Fc4 of a Protein A chip (GE Healthcare, Little Chalfont, UK) at a flow rate of 10 μL/min to give an RU of 40-100. The surface was then allowed to stabilise. Single cycle kinetic data was obtained at a flow rate of 45 μL/min. […] The association phase for the three injections of increasing concentrations of TNF was monitored for 240 seconds and a single dissociation phase was measured for 2700 seconds following the last injection of TNF. Regeneration of the Protein A surface was conducted using 10 mM glycine-HCl pH 1.5. The signal from the reference channel Fc1 (no receptor) was subtracted from that of Fc2, Fc3 and Fc4 to correct for differences in non-specific binding to a reference surface.

Row | Binder | Kd [nM]
1 | B1 | 0.132
2 | B2 | 0.128
3 | B3 | 0.363
4 | B4 | 0.0407
5 | B5 | 0.0323
6 | B6 | 0.304
7 | B7 | 7.35
8 | B8 | 0.0827

molecular target: T2, Fc tagged human TNFR1 (Sino Biological) (human, UniProt P19438 22-211, limits assumed); test: as above
T2 construct: Bought reagent; also called hTNFR1; hTNFR1-Fc; not shown: Fc tag of the bought protein
T2 sequence (looked up): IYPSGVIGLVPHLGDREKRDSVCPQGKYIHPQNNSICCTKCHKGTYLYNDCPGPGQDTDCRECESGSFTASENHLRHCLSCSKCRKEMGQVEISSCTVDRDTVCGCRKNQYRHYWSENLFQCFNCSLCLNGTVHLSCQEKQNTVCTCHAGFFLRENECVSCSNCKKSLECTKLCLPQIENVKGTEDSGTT
Experimental: as §1, §2

Row | Binder | Kd [nM]
9 | B1 | 0.0195
10 | B2 | 0.0199
11 | B3 | 0.188
12 | B4 | 0.0171
13 | B5 | 0.0129
14 | B6 | 0.0169
15 | B7 | 0.635
16 | B8 | 0.0424

molecular target: T1, Fc tagged mouse TNFR1 (Sino Biological); test: SPR, Biacore single cycle kinetics, stability study, after 1 year at -80° C.
Experimental: as §2
(§3) At day zero (prior to freezing) and following thawing on ice after 3 months and 1 year the following assays were performed: [0341] SDS-PAGE [0342] OD280 nm [0343] Single cycle Biacore for binding to hTNFR1, hTNFR2 and mTNFR1

Row | Binder | Kd [nM]
17 | B2 | 0.0977
18 | B4 | 0.0458
19 | B6 | 0.0474
20 | B7 | 0.398
21 | B8 | 0.165

molecular target: T2, Fc tagged human TNFR1 (Sino Biological); test: as above
Experimental: as §2, §3

Row | Binder | Kd [nM]
22 | B2 | 0.0446
23 | B4 | 0.0399
24 | B6 | 0.0667
25 | B7 | 0.023
26 | B8 | 0.0353

molecular target: T1, Fc tagged mouse TNFR1 (Sino Biological); test: SPR, Biacore single cycle kinetics, stability study, before freezing (t=0)
Experimental: as §2, §3

Row | Binder | Kd [nM]
27 | B2 | 0.0771
28 | B4 | 0.07
29 | B6 | 0.067
30 | B7 | 0.11
31 | B8 | 0.116

molecular target: T2, Fc tagged human TNFR1 (Sino Biological); test: as above
Experimental: as §2, §3

Row | Binder | Kd [nM]
32 | B2 | 0.0355
33 | B4 | 0.0173
34 | B6 | 0.0969
35 | B7 | 0.012
36 | B8 | 0.022

molecular target: T1, Fc tagged mouse TNFR1 (Sino Biological); test: SPR, Biacore single cycle kinetics, stability study, after 1 year at -20° C.
Experimental: as §2, §3

Row | Binder | Kd [nM]
37 | B2 | 0.115
38 | B4 | 0.0692
39 | B6 | 0.711
40 | B7 | 0.527
41 | B8 | 0.111

molecular target: T2, Fc tagged human TNFR1 (Sino Biological); test: as above
Experimental: as §2, §3

Row | Binder | Kd [nM]
42 | B2 | 0.0493
43 | B4 | 0.0331
44 | B6 | 0.0526
45 | B7 | 0.0271
46 | B8 | 0.0262

molecular target: T3, Fc tagged human TNFR2 (Sino Biological) (human, UniProt P20333 23-257); test: SPR, Biacore T200 multi cycle kinetics, 1:1 model; ** = a residual amount of binding is observed but 1 to 1 model is a poor fit
T3 construct: Bought reagent; also called hTNFR2; hTNFR2-Fc; not shown: Fc tag of the bought protein
T3 sequence (looked up): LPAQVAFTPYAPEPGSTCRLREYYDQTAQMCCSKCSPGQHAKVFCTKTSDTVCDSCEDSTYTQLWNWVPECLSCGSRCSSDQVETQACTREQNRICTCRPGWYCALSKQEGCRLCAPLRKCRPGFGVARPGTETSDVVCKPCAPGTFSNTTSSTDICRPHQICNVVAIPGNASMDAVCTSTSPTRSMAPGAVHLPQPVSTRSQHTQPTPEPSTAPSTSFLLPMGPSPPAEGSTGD
Experimental: (§4) Multi cycle kinetics analysis of binding to hTNFR1, hTNFR2, mTNFR1 and mTNFR2 was performed on the 10 lead variants using a Biacore T200 (serial no. 1909913) instrument running Biacore T200 Evaluation Software V3.0.1 (Uppsala, Sweden) to characterise further the binding to these receptors.
As with the single cycle kinetics, receptor binding was assessed in two separate experiments. In the first set of experiments binding to hTNFR1 (Fc2), hTNFR2 (Fc3) and mTNFR1 (Fc4) was assessed. In the second set of experiments the extent of mTNF2 (Fc4) binding was assessed using hTNFR1 (Fc2) and hTNFR2 (Fc3) as controls. All receptors were diluted in running buffer to a concentration of ˜4 μg/mL and at the start of each cycle loaded onto Fc2, Fc3 and Fc4 of a Protein A CM5 chip and captured at a flow rate of 10 μL/min to give an RU of ˜40-100. The surface was then allowed to stabilise. All kinetic data was obtained using a flow rate of 75 μl/min to minimise any potential mass transfer effects. […] The association phase of TNF was monitored for 280 seconds and the dissociation phase was measured for 2100 seconds. […] Regeneration of the Protein A surface was conducted using two injections of 10 mM glycine-HCL pH 1.5 at the end of each cycle. […]

Row | Binder | Kd [nM]
47 | B3 | 4.13

molecular target: T3, Fc tagged human TNFR2 (Sino Biological); test: SPR (Biacore T200) single cycle kinetics, Fc-tagged receptor captured on Protein A chip, TNF protein as analyte at 1.67-15 nM
Experimental: as §1, §2
(§5) Controls were used to ensure the integrity of the receptors during the Biacore run.

Row | Binder | binding result
48 | B9 | binds
49 | B2 | no binding (tested: 15 nM)
50 | B4 | no binding (tested: 15 nM)
51 | B5 | no binding (tested: 15 nM)
52 | B6 | no binding (tested: 15 nM)
53 | B7 | no binding (tested: 15 nM)
54 | B8 | no binding (tested: 15 nM)

molecular target: T4, Fc tagged mouse TNFR2 (Sino Biological) (mouse, UniProt P25119 23-258); test: as above
T4 construct: Bought reagent; also called mTNFR2; mTNF2; not shown: Fc tag of the bought protein
T4 sequence (looked up): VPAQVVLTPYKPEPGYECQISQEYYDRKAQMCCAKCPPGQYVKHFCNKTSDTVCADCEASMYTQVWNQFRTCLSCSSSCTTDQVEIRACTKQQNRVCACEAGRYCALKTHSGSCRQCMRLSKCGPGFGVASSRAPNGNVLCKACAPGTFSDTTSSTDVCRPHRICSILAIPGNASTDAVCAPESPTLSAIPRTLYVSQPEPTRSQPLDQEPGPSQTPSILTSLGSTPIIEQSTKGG
Experimental: as §1, §2, §5

Row | Binder | binding result
55 | B9 | binds
56 | B1 | no binding (tested: 15 nM)
57 | B2 | no binding (tested: 15 nM)
58 | B3 | no binding (tested: 15 nM)
59 | B4 | no binding (tested: 15 nM)
60 | B5 | no binding (tested: 15 nM)
61 | B6 | no binding (tested: 15 nM)
62 | B8 | no binding (tested: 15 nM)

molecular target: T1, Fc tagged mouse TNFR1 (Sino Biological); test: SPR, Biacore T200 multi cycle kinetics, receptor-Fc captured on Protein A chip, TNF 1.25-40 nM, 1:1 model
Experimental: as §4
(§6) As with the single cycle kinetics, receptor binding was assessed in two separate experiments. In the first set of experiments binding to hTNFR1 (Fc2), hTNFR2 (Fc3) and mTNFR1 (Fc4) was assessed. In the second set of experiments the extent of mTNF2 (Fc4) binding was assessed using hTNFR1 (Fc2) and hTNFR2 (Fc3) as controls. All receptors were diluted in running buffer to a concentration of ˜4 μg/mL and at the start of each cycle loaded onto Fc2, Fc3 and Fc4 of a Protein A CM5 chip and captured at a flow rate of 10 μL/min to give an RU of ˜40-100. The surface was then allowed to stabilise. All kinetic data was obtained using a flow rate of 75 μl/min to minimise any potential mass transfer effects. […] The association phase of TNF was monitored for 280 seconds and the dissociation phase was measured for 2100 seconds. […] Regeneration of the Protein A surface was conducted using two injections of 10 mM glycine-HCL pH 1.5 at the end of each cycle. The signal from the reference channel Fc1 was subtracted from that of Fc2, Fc3 and Fc4 to correct for differences in non-specific binding to a reference surface, and a global Rmax parameter was used in the 1-to-1 binding model.

Row | Binder | Kd [nM]
63 | B1 | 0.153
64 | B2 | 0.289
65 | B3 | 0.112
66 | B4 | 0.14
67 | B5 | 0.208
68 | B6 | 0.59
69 | B7 | 5.08
70 | B8 | 0.208

molecular target: T2, Fc tagged human TNFR1 (Sino Biological); test: as above
Experimental: as §4, §6

Row | Binder | Kd [nM]
71 | B1 | 0.11
72 | B2 | 0.0591
73 | B3 | 0.261
74 | B4 | 0.00872
75 | B5 | 0.0306
76 | B6 | 0.339
77 | B7 | 0.462
78 | B8 | 0.0465
